In assay [1] the target is T1, mouse CLDN18.2 (mouse, UniProt P56857 10-264, Expressed on HEK293T cells as a fusion to GFP. The GFP is left out of the letters.).
T1 construct: also called mouse CLDN18.2 fused to GFP; not shown: The GFP fused to mouse CLDN18.2, and any linker to it
T1 chain: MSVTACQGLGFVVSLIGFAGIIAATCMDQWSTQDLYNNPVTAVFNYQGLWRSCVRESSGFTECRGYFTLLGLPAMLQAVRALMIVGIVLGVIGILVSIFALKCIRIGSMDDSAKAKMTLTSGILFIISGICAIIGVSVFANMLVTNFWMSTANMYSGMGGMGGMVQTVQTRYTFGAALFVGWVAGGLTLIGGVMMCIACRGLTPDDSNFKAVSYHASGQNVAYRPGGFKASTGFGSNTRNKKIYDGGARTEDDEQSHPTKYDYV
As to the kind of experiment: FACS dose curve, AF647-labelled IgG on HEK293T mouse CLDN18.2 MP cells.

Assay [2] concerns the target T2, human Claudin-18.2 (CLDN18.2) (human).
T2 construct: On cells: fused to GFP in engineered HEK293T cells (clone C12), endogenous in HUPT4 and SNU601 cells; also called human CLDN18.2
As to the kind of experiment: FACS, 1.5 ug antibody, HEK293T-CLDN18.2 C12 clone cells. On the technique in general: Flow cytometry measures light scatter and fluorescence of single cells or particles in a stream.

Assay [3] concerns the target T2, human Claudin-18.2 (CLDN18.2). As to the kind of experiment: FACS, 1.5 ug antibody, HUPT4 cells (endogenous CLDN18.2).
Method: FACS assays were carried out to determine relative antigen binding strengths of the humanized antibodies (at either 1.5 μg or 0.3 μg) for binding to CLDN18.2 as expressed by the indicated cancer cell lines.
Assay [4] has the same target. As to the kind of experiment: KinExA, cell-based; HUPT4, Versene; Error% 3.57; 95% CI 0.31nM - 1.34nM; equilibrium curves 1nM, 20nM.
Method: (§1) For each KD measurement, in general, at least two antibody concentration curves were prepared using the same batch of cells (same passage) to avoid changes in expression level from passage to passage. Briefly, either HEK293T CLDN18.2-mGFP C12 cells (engineered overexpression cell line) or HUPT4 cells (native positive cell line) were detached using Versene. Cells were then equilibrated in different concentrations of the antibody solutions, respectively, in 2% FBS/DMEM or 2% FBS/RPMI at 4° C. overnight. Cells concentrations started with 1.8 ×10^7 cells/ml and 2-fold serial dilution was performed to 10 points. In addition, antibody solution only (Signal 100%) and nonspecific binding (NSB) buffer only were included in each curve. Next day, spin the cells at 1500 rpm for 10 mins and saved the supernatant for measurement. […] The KD and antigen expression level were calculated using two antibody curves analyzed by n-curve analysis.
Assay [5] has the same target. As to the kind of experiment: KinExA, cell-based; HEK293T-CLDN18.2-mGFP C12, Versene; Error% 2.35; 95% CI 2.12nM - 6.47nM; equilibrium curves 500pM, 2nM, 10nM. For orientation: In KinExA the mixture passes briefly over coated beads that capture the unbound partner.
Method: as §1
Assay [6] has the same target. As to the kind of experiment: KinExA, cell-based; HUPT4, Versene; Error% 3.73; 95% CI 0.87nM - 3.23nM; equilibrium curves 1nM, 20nM.
Method: as §1
For assay [7] the target is unchanged. As to the kind of experiment: KinExA, cell-based; HEK293T-CLDN18.2-mGFP C12, Versene; Error% 1.84; 95% CI 2.03nM - 4.44nM; equilibrium curves 500pM, 2nM, 10nM.
Method: as §1
The target is the same in assay [8]. As to the kind of experiment: flow cytometry; HUPT4 over M202 [Cont.].
Method: (§2) The samples were then measured by Intellicyt® iQue Advanced Flow Cytometry Platform.
For assay [9] the target is unchanged. As to the kind of experiment: flow cytometry; HEK293T CLDN18.2 over HEK293T parental [Cont.].
Method: as §2
The target is the same in assay [10]. As to the kind of experiment: KinExA, cell-based; HUPT4, Versene; Error% 2.72; 95% CI 0.58nM - 1.43nM; equilibrium curves 1nM, 20nM.
Method: as §1
Assay [11] has the same target. As to the kind of experiment: KinExA, cell-based; HEK293T-CLDN18.2-mGFP C12, Versene; Error% 7.72; 95% CI 0.18nM - 11.91nM; equilibrium curves 500pM and 10nM.
Method: as §1
The target is the same in assay [12]. As to the kind of experiment: KinExA, cell-based; HUPT4, Versene; Error% 3.90; 95% CI 0.28nM - 1.32nM; equilibrium curves 1nM, 20nM.
Method: as §1
Assay [13] shares this target. As to the kind of experiment: KinExA, cell-based; HEK293T-CLDN18.2-mGFP C12, Versene; Error% 7.19; 95% CI 0.43nM - 6.90nM; equilibrium curves 500pM and 10nM.
Method: as §1

As a reminder, the Kd is the equilibrium constant for the complex coming apart. Low readings indicate tighter binding, high ones weaker binding.

B1: Ab 392 (antibody, V domains shown)
VH: EVQLQQSGPELVKPGASVKMSCKASGFTFTSYVMHWVKQKSGQGLEWIGYINPYNDDIKYNAKFEDKATLTSDRSSSTAYMELSSLTSDDSAVYFCTRGDYWGQGTTLTVSS
VL: DIVMTQSPSSLTVTTGEKVTMDCKSSQSLLNSGNQKNYLTWYQQKSGQPPKLLIYWASIRKSGVPDRFTGSGSGTDFTLTISSVQAEDLAVYYCLNDYSFPLTFGAGTKLELK
Turning to B1, the binding result in assay [1] is recorded as “no binding (tested: 0.32 nM to 1000 nM)”.

B2: Reference antibody 2 (Benchmark 2-163E12) (antibody, V domains shown)
VH: QVQLQQSGAELARPGASVKLSCKASGYTFTDYYINWVKQRTGQGLEWIGEIYPGSGNTYYNEKFKGKATLTADKSSSTAYMQLSSLTSEDSAVYFCARSYGAFDYWGQGTTLTVSS
VL: DIVMTQSPSSLTVTAGEKVTMSCKSSQSLLNSGNQKNYLTWYQQKPGQPPKLLIYWASTRESGVPDRFTGSGSGTDFTLTISSVQAEDLAVYYCQNDYSYPLTFGAGTKLELK
Regarding B2, the binding result in assay [1] is on record as “no binding (tested: 0.32 nM to 1000 nM)”.

B3: Ab 400 (antibody, V domains shown)
VH: QVQLKESGPGLVAPSQSLSITCTVSGFSLNSYGVSWVRQPPGKGLEWLGVIWGDGSTNYHSALKSRLNINKDKSKSQVFLKLNSLQTDDTATYYCARPTRGNAMDYWGQGTSVTVSS
VL: DVVMTQSPSSLTVTAGEKVTMNCKSSQSLLNSGNQRSYLTWYQQKPGQPPKLLIYWASTRESGAPDRFTGSGSGADFTLTISSVQAEDLAIYYCQNNYNYPFTFGSGTKLEIK
As to B3, the binding result in [1] was “no binding (tested: 0.32 nM to 1000 nM)”.

B4: HuAb307-3 (antibody, V domains shown)
VH: EVQLLESGGGLVQPGGSLRLSCAASGFTFSSYTMSWVRQAPGKGLEWVATIIIGGSYTYYADSVKGRFTISRDNSKNTLYLQMNSLRAEDTAVYYCTRLVKGNAMDYWGQGTLVTVSS
VL: DIVMTQSPDSLAVSLGERVTMNCKSSQSLLNSGNQKNYLSWYQQKPGQPPKLLFYWASTRESGVPDRFSGSGSGTDFTLTISSVQAEDVAVYYCQNDYSYPFTFGQGTKLEIK
notes: Humanized, expressed as full-length IgG
B4: the figures for the “FACS signal (relative antigen binding strength)” value in [2] and in assay [3] were 151000 and 34000, respectively. In addition, the results for the Kd in [4] and in assay [5] were 0.69 nM and 3.65 nM, respectively.

B5: 02-0358-h3 (antibody, V domains shown)
VH: EVQLVESGGGLVQPGGSLRLSCAVSGFTFSSFGMHWVRQAPGKGLEWVAYISSGTTNIYYADSVKGRFTVSRDNAKNSLYLQMNSLRAEDTAVYYCVRSGYYGNSLDYWGQGTLVTVSS
VL: DIVMTQSPDSLAVSLGERVTMNCKSSQSLFNSGNQRNYLTWYQQKPGQPPKLLIYWASTRESGVPDRFSGSGSGTDFTLTISSVQAEDVAVYYCQNVYIYPLTFGQGTKLEIK
notes: Humanized IgG
For the molecule B5, the values for the Kd in assay [6] and in assay [7] were 1.7 nM and 3 nM, respectively.

B6: 02-0307-h6 (antibody, V domains shown)
VH: EVQLLESGGGLVQPGGSLRLSCAASGFTFSSYTMSWVRQAPGKGLEWVATIIIGGSYTYYADSVKGRFTISRDNSKNTLYLQMNSLRAEDTAVYYCTRLVKGNAMDYWGQGTLVTVSS
VL: DIVMTQSPDSLAVSLGERVTMNCKSSQSLLSSGNQKNYLSWYQQKPGQPPKLLFYWASTRESGVPDRFSGSGSGTDFTLTISSVQAEDVAVYYCQNDYSYPFTFGQGTKLEIK
notes: Humanized IgG (detected with anti-human IgG Fc)
With B6, the ratio native in assay [8] was determined as 137. The “ratio OE” value in assay [9] was 482. Also, the dissociation constant Kd in assay [10] worked out at 0.93 nM; in [11], 1.42 nM.

B7: 02-0358-h5 (antibody, V domains shown)
VH: EVQLVESGGGLVQPGGSLRLSCAVSGFTFSSFGMHWVRQAPGKGLEWVAYISSGTTNIYYADSVKGRFTVSRDNAKNSLYLQMNSLRAEDTAVYYCVRSGYYGNSLDYWGQGTLVTVSS
VL: DIVMTQSPDSLAVSLGERVTMNCKSSQSLFSSGNQRNYLTWYQQKPGQPPKLLIYWASTRESGVPDRFSGSGSGTDFTLTISSVQAEDVAVYYCQNVYIYPLTFGQGTKLEIK
notes: Humanized IgG
Regarding B7, the ratio native in [8] came to 111. Besides, the “ratio OE” value in assay [9] turned out to be 574. Moreover, the Kd was 0.67 nM in assay [12] and 1.81 nM in assay [13].

The record behind these values is patent US11834499 (University of California, dated 2023).
